Measurements as given in patent publication US5849890, “High affinity oligonucleotide ligands to chorionic gonadotropin hormone and related glycoprotein hormones” (NeXstar Pharmaceuticals, Inc.).

B1: 2nd generation ligand 14 (ssRNA)
RNA: GGGAGGACGAUGCGGUUCGACACGAAAGUUGAACGAUCCUUCUAUCUGUUGGACCAGACGACUCGCCCGA
modifications: 2'-F all pyrimidines
B2: 2nd generation ligand 52 (ssRNA)
RNA: GGGAGGACGAUGCGGGAUUUUCCGUUAAUUGAACGAUCCUUUUCACGGACUGCAGACGACUCGCCCGA
modifications: 2'-F all pyrimidines
B3: 2nd generation ligand 25 (ssRNA)
RNA: GGGAGGACGAUGCGGUUCCUGAUUCAAGUUGAACGAUCCUUCCUGCUGUACGUCCAGACGACUCGCCCGA
modifications: 2'-F all pyrimidines
B4: 2nd generation ligand 42 (ssRNA)
RNA: GGGAGGACGAUGCGGGUUCGAAACUUCCUUGAACGAUCCUUGGAUGUUUUGCUCAGACGACUCGCCCGA
modifications: 2'-F all pyrimidines
B5: 2nd generation ligand 91 (ssRNA)
RNA: GGGAGGACGAUGCGGUUCAUUUUUGUGUUGAACGAUCCUUCACUAACCUACCACAGACGACUCGCCCGA
modifications: 2'-F all pyrimidines
B6: 2nd generation ligand 5 (ssRNA)
RNA: GGGAGGACGAUGCGGGUUUAAUCUCGGAUUGAACGAUCCUUUCUGUAAUUAGUCCAGACGACUCGCCCGA
modifications: 2'-F all pyrimidines
B7: 2nd generation ligand 20 (ssRNA)
RNA: GGGAGGACGAUGCGGUGUUCAUGCUUGAUUGAACGAUCCUUUCAUAGUGUUGGUCAGACGACUCGCCCGA
modifications: 2'-F all pyrimidines
B8: 2nd generation ligand 61 (ssRNA)
RNA: GGGAGGACGAUGCGGUUUAGUGUUUAGUUGAACGAUCCUUCUAACACCAGUCCCAGACGACUCGCCCGA
modifications: 2'-F all pyrimidines
B9: 2nd generation ligand 33 (ssRNA)
RNA: GGGAGGACGAUGCGGUUCGAUGGCCAUUUGAACGAUCCUUAUUAUCAACGGUCCAGACGACUCGCCCGA
modifications: 2'-F all pyrimidines
B10: 2nd generation ligand 23 (ssRNA)
RNA: GGGAGGACGAUGCGGGUUUAAUACAAAGUUGAACGAUCCUUCUUUGCAUUGGACCAGACGACUCGCCCGA
modifications: 2'-F all pyrimidines
B11: 2nd generation ligand 93 (ssRNA)
RNA: GGGAGGACGAUGCGGUUCUAGGUCGAAAUUGAACGAUCCUUUUUCGCUAUGGAUCAGACGACUCGCCCGA
modifications: 2'-F all pyrimidines
B12: 2nd generation ligand 10 (ssRNA)
RNA: GGGAGGACGAUGCGGAACACCAAUCUUUUUGAACGAUCCUUCGUGGGAGUGCAUCAGACGACUCGCCCGA
modifications: 2'-F all pyrimidines
B13: 2nd generation ligand 89 (ssRNA)
RNA: GGGAGGACGAUGCGGUGCAUGAUUUAGUUGAACGAUCCUUCCAACUUCCAGCACAGACGACUCGCCCGA
modifications: 2'-F all pyrimidines
B14: 2nd generation ligand 19 (ssRNA)
RNA: GGGAGGACGAUGCGGUUUGACGUAUAAUUGAACGAUCCUUUUCUAGCUUAGACCAGACGACUCGCCCGA
modifications: 2'-F all pyrimidines
B15: 2nd generation ligand 73 (ssRNA)
RNA: GGGAGGACGAUGCGGGGUUUUCUAAGUGUUGAACGAUCCUUCACAUAGCGUGUCCCAGACGACUCGCCCGA
modifications: 2'-F all pyrimidines
B16: 2nd generation ligand 86 (ssRNA)
RNA: GGGAGGACGAUGCGGUUCAACAACGUACUUGAACGAUCCUUGUGCUCGUUGAUCCAGACGACUCGCCCGA
modifications: 2'-F all pyrimidines
B17: 2nd generation ligand 49 (ssRNA)
RNA: GGGAGGACGAUGCGGUUCGUCAUCGCUAUUGAACGAUCCUUUAGCUGAUGGACCAGACGACUCGCCCGA
modifications: 2'-F all pyrimidines
B18: 2nd generation ligand 72 (ssRNA)
RNA: GGGAGGACGAUGCGGAUUCGAUGUAGUUUGAACGAUCCUUGUAUAUAUCGGAUCAGACGACUCGCCCGA
modifications: 2'-F all pyrimidines
B19: 2nd generation ligand 9 (ssRNA)
RNA: GGGAGGACGAUGCGGUUCUACACGAUAUUUGAACGAUCCUUGUAUCUUAGGUCCCAGACGACUCGCCCGA
modifications: 2'-F all pyrimidines
B20: 2nd generation ligand 74 (ssRNA)
RNA: GGGAGGACGAUGCGGUAAGUUCUAACUUUUGAACGAUCCUUGGCACCCUGACUACAGACGACUCGCCCGA
modifications: 2'-F all pyrimidines
B21: 2nd generation ligand 11 (ssRNA)
RNA: GGGAGGACGAUGCGGGAUUCUCUUUGAGUUGAACGAUCCUUCUCAUCGCACUUGCCAGACGACUCGCCCGA
modifications: 2'-F all pyrimidines
B22: 2nd generation ligand 69 (ssRNA)
RNA: GGGAGGACGAUGCGGGUUUCACUUCAAGUUGAACGAUCCUUCUUGGCUUGAGCACAGACGACUCGCCCGA
modifications: 2'-F all pyrimidines
B23: 2nd generation ligand (SEQ 118) (ssRNA)
RNA: GGGAGGACGAUGCGGGUUCGACAUAAUCUUGAACGAUCCUUGAUUACUUGGUCCCAGACGACUCGCCCGA
modifications: 2'-F all pyrimidines
B24: 2nd generation ligand 71 (ssRNA)
RNA: GGGAGGACGAUGCGGAUUCGAUUAGAGAUUGAACGAUCCUUUCAUCAGUUGGAUCAGACGACUCGCCCGA
modifications: 2'-F all pyrimidines
B25: 2nd generation ligand 83 (ssRNA)
RNA: GGGAGGACGAUGCGGUUUGAUGAGGUAGUUGAACGAUCCUUCCAUCCGUUAGACCAGACGACUCGCCCGA
modifications: 2'-F all pyrimidines
B26: 2nd generation ligand 58 (ssRNA)
RNA: GGGAGGACGAUGCGGUCUUAAGUUUGAAUUGAACGAUCCUUUUCUUCCAGGCAACAGACGACUCGCCCGA
modifications: 2'-F all pyrimidines
B27: 2nd generation ligand 88 (ssRNA)
RNA: GGGAGGACGAUGCGGUUCGUUACGAUAAUUGAACGAUCCUUUUAUCUUUCAGUCCAGACGACUCGCCCGA
modifications: 2'-F all pyrimidines
B28: 2nd generation ligand 98 (ssRNA)
RNA: GGGAGGACGAUGCGGGUUCCAGUAUUAGUUGAACGAUCCUUCUUAUCUGGAGUCCAGACGACUCGCCCGA
modifications: 2'-F all pyrimidines
B29: Class 1 ligand 30 (ssRNA)
RNA: GGGAGACAAGAAUAAACGCUCAAAAGUCACUCGCAGCGCUUCCUGGUUCGAUUGAACGAUCCUUUCGACAGGAGGCUCACAACAGGC
modifications: 2'-F all pyrimidines
B30: Class 1 ligand 37 (ssRNA)
RNA: GGGAGACAAGAAUAAACGCUCAAUUUGGAAGGUCCUGAGUCUCGUUGGUCGUUGAACGAUCCUUCGACAGGAGGCUCACAACAGGC
modifications: 2'-F all pyrimidines
B31: Class 1 ligand 56 (ssRNA)
RNA: GGGAGACAAGAAUAAACGCUCAAUUUGGAAGAUCCCUGGAGUCUCGUUGGUCGUUGAACGAUCCUUCGACAGGAGGCUCACAACAGGC
modifications: 2'-F all pyrimidines
B32: Class 1 ligand 11 (ssRNA)
RNA: GGGAGACAAGAAUAAACGCUCAAUUUAGAAGAUCCCGGAGUCUCGUUGGUCGUUGAACGAUCCUUCGACAGGAGGCUCACAACAGGC
modifications: 2'-F all pyrimidines
B33: Class 1 ligand 26 (ssRNA)
RNA: GGGAGACAAGAAUAAACGCUCAAUUUGGAAGAUCCCUGAGUCUCGUUGGUCGUUGAACGAUCCUUCGACAGGAGGCUCACAACAGGC
modifications: 2'-F all pyrimidines
B34: Class 1 ligand 49 (ssRNA)
RNA: GGGAGACAAGAAUAAACGCUCAAUUUGGAAGAUCCCGAGAUCUCGUUGGUCGUUGAACGAUCCUUCGACAGGAGGCUCACAACAGGC
modifications: 2'-F all pyrimidines
B35: Class 1 ligand 16 (ssRNA)
RNA: GGGAGACAAGAAUAAACGCUCAAUUCGGAAGAUCCCAGAGUCUCGUUGGUCGUUGAACGAUCCUUCGACAGGAGGCUCACAACAGGC
modifications: 2'-F all pyrimidines
B36: Class 1 ligand 5 (ssRNA)
RNA: GGGAGACAAGAAUAAACGCUCAAAUUGGAGUAUCCCUGAGUCUUGUUGGUCGUUGAACGGUCCUUCGACAGGAGGCUCACAACAGGC
modifications: 2'-F all pyrimidines
B37: Class 1 ligand 40 (ssRNA)
RNA: GGGAGACAAGAAUAAACGCUCAAUUCUGAAGAUCCCAGAGUCUCGUUGGUCGUUGAACGAUCCUUCGACAGGAGGCUCACAACAGGC
modifications: 2'-F all pyrimidines
B38: Class 1 ligand 10 (ssRNA)
RNA: GGGAGACAAGAAUAAACGCUCAAUUCGGAAGAUCACGGAGUCUCGUUGGUCGUUGAACGAUCCUUCGACAGGAGGCUCACAACAGGC
modifications: 2'-F all pyrimidines
B39: Class 1 ligand 18 (first SELEX) (ssRNA)
RNA: GGGAGACAAGAAUAAACGCUCAAUUUCGAAGAUCCCUGAGUCUCGUUGGUCGUUGAACGAUCCUUCGACAGGAGGCUCACAACAGGC
modifications: 2'-F all pyrimidines
B40: Class 1 ligand 43 (ssRNA)
RNA: GGGAGACAAGAAUAAACGCUCAACCAGAUAAUCCCAAUGAGUCCCUCGAGAUUGAACGAUCCUUUCGACAGGAGGCUCACAACAGGC
modifications: 2'-F all pyrimidines
B41: Class 1 ligand 20 (ssRNA)
RNA: GGGAGACAAGAAUAAACGCUCAAGUCAUAAGCCUAACGGUCCCUAGUCAAUUGAACGAUCCUUCGACAGGAGGCUCACAACAGGC
modifications: 2'-F all pyrimidines
B42: Class 1 ligand 4 (ssRNA)
RNA: GGGAGACAAGAAUAAACGCUCAAUUUGGAAGAUCCCGGAGUCUCGUUGGUGUUGAACGAUUCUUCGACAGGAGGCUCACAACAGGC
modifications: 2'-F all pyrimidines
B43: Class 1 ligand 8 (ssRNA)
RNA: GGGAGACAAGAAUAAACGCUCAAGUGCCCUGUUAUCUUCCUCGAUCGAUUGAACGAUCCUUUCGACAGGAGGCUCACAACAGGC
modifications: 2'-F all pyrimidines

The binders below were run against T1, human chorionic gonadotropin (hCG) heterodimer (Homo sapiens, UniProt P01215;P0DN86 P01215:25-116,P0DN86:21-165) (assay: filter). Details: tags: Calbiochem or Vitro Diagnostics (14,000 IU/mg); chain copies: alpha/beta heterodimer (stated); label: 32P.
T1 sequence (P01215 25-116, chain 1 of 2, other chains not shown): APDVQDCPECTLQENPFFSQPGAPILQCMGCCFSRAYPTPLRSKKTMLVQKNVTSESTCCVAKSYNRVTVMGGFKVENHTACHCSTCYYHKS

First: B1
Second: B2
The binding signal of the first is higher: 15.4 % bound at 100 nM for the first, 6.01 % bound at 100 nM for the second.

Compared with B3, B4 is higher in binding signal: 0.28 % bound at 100 nM for the first, 0.54 % bound at 100 nM for the second.

Compared with B5, B6 is higher in binding signal: 2.36 % bound at 100 nM for the first, 3.14 % bound at 100 nM for the second.

First: B7
Second: B8
The binding signal of the first is lower: 8.37 % bound at 100 nM for the first, 15.5 % bound at 100 nM for the second.

Going from B9 to B10, the binding signal rises from 0.59 % bound at 100 nM to 13 % bound at 100 nM.

Compared with B11, B12 is lower in binding signal: 7.25 % bound at 100 nM for the first, 0 % bound at 100 nM for the second.

First: B13
Second: B14
The binding signal of the first is lower: 0.21 % bound at 100 nM for the first, 8.52 % bound at 100 nM for the second.

Compared with B15, B16 is lower in binding signal: 0.84 % bound at 100 nM for the first, 0.57 % bound at 100 nM for the second.

Compared with B17, B18 is lower in binding signal: 14.4 % bound at 100 nM for the first, 0.3 % bound at 100 nM for the second.

First: B19
Second: B20
The binding signal of the first is lower: 9.98 % bound at 100 nM for the first, 11.5 % bound at 100 nM for the second.

First: B21
Second: B22
The binding signal of the first is lower: 10 % bound at 100 nM for the first, 18.8 % bound at 100 nM for the second.

Going from B23 to B24, the binding signal falls from 13 % bound at 100 nM to 6.99 % bound at 100 nM.

First: B25
Second: B26
The binding signal of the first is higher: 4.48 % bound at 100 nM for the first, 0 % bound at 100 nM for the second.

Compared with B27, B28 is higher in binding signal: 0.32 % bound at 100 nM for the first, 11.7 % bound at 100 nM for the second.

Target: T1, human chorionic gonadotropin (hCG) …
Experiment: filter
Details: tags: Calbiochem or Vitro Diagnostics (14,000 IU/mg); chain copies: alpha/beta heterodimer (stated); label: 32P
Remark: another data set of the same source

Compared with B29, B30 is higher in binding signal: 0.58 % bound at 100 nM for the first, 1.89 % bound at 100 nM for the second.

First: B31
Second: B32
The binding signal of the first is higher: 3.85 % bound at 100 nM for the first, 3.09 % bound at 100 nM for the second.

First: B33
Second: B34
The binding signal of the first is lower: 3.34 % bound at 100 nM for the first, 3.77 % bound at 100 nM for the second.

Going from B35 to B36, the binding signal falls from 5.41 % bound at 100 nM to 1.26 % bound at 100 nM.

First: B37
Second: B38
The binding signal of the first is lower: 2.2 % bound at 100 nM for the first, 3.59 % bound at 100 nM for the second.

First: B39
Second: B40
The binding signal of the first is higher: 2.69 % bound at 100 nM for the first, 0.93 % bound at 100 nM for the second.

Going from B41 to B42, the binding signal rises from 0.13 % bound at 100 nM to 4.81 % bound at 100 nM.

In the case of B43, the binding signal is reported as 0.98 % bound at 100 nM.
